Measurements reported in paper PMC3548785.
pKd: −log10 of the molar value.

Target: His-ASF/SF2 (UniProt Q07955)
Test: intrinsic tryptophan fluorescence quenching
Settings: 100 mM KCl, 20 mM Tris-HCl pH 7.5, room temperature, 100 nM His-ASF/SF2, excitation 280 nm, emission 340 nm

His-ASF/SF2, sequence (Q07955 whole entry): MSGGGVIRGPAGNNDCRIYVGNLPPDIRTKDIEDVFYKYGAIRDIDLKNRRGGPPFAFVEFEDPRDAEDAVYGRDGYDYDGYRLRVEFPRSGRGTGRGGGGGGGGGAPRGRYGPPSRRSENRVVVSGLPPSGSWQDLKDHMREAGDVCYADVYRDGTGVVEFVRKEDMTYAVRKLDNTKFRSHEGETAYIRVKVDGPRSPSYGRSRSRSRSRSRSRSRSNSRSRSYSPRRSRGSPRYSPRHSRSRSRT

Substance: Genomic HDV RNA
- pKd: 7.40
